Laboratory results reported in patent publication US20130202618A1.

What was measured:
[1] = target: C. difficile toxin A from strain Pitt 07 (ribotype 078) (Clostridium difficile strain Pitt 07); assay: cell-based or functional assay
[2] = target: C. difficile toxin B from strain CCL678 (ribotype 027, BI/NAP1/027) (Clostridium difficile strain CCL678); assay: cell-based or functional assay

| Substance | EC50, neutralization of supernatant cytotoxicity on T-84 cells [1] [nM] | EC50, neutralization of supernatant cytotoxicity on CHO-K1 cells [2] [nM] |
| --- | --- | --- |
| comparator human anti-toxin A monoclonal antibody CDA-1 | > 100 |  |
| comparator human anti-toxin B monoclonal antibody CDB-1 |  | > 100 |
